Biological target: HLA-DR15 (HLA-DRB1*1501) (Homo sapiens, UniProt P01903+P01911)
Test: Competitive ELISA against biotinylated pp65 (pp65bio) for binding to HLA-DR
Settings: pp65bio 150 nM, HLA-DR15 150 nM, non-biotinylated competitor 7.8 nM - 1 μM, HLA-DM 150 nM, PBS, 37°C, 18 h, triplicate, ± SD, read-out: IC50 in competition with pp65bio for HLA-DR15

For “MBP85-97: myelin basic protein peptide 85-97 fused to C-terminus of bacterial thioredoxin through (SGGGG)3S linker with His-tags (PVVHFFKNIVTPR; not fully specified; C-terminal fusion to thioredoxin via (SGGGG)3S linker (left out))”, the IC50 was 120 ± 20 nM.
